# According to paper PMC4787773:
# Target: hnRNPK (human, UniProt P61978 1-463)
# Test: EMSA
row,Binder,binding result
1,"GGGGCCGGGGCCGGGGCCGGGGCCGGGGCCGGGGCCGGGGCCGGGGCC (structured_DNA, 5-methylcytosine at each CpG) [d(GGGGCC)8 5mCpG]",no binding
2,"GGGGCCGGGGCCGGGGCCGGGGCCGGGGCCGGGGCCGGGGCCGGGGCC (structured_DNA, 5-hydroxymethylcytosine at each CpG) [d(GGGGCC)8 5hmCpG]",no binding
